Paper PMC2691818

Tests used:
[1] = target: T1, h-mtTFA full-length (mature) (Homo sapiens, UniProt Q00059 43-246); assay: EMSA
T1 sequence: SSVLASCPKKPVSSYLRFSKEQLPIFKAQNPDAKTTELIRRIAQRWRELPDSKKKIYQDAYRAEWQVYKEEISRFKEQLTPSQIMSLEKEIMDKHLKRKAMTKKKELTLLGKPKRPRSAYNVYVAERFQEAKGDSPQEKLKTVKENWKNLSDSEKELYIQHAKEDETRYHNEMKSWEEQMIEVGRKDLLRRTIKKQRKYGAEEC

[2] = target: T2, h-mtTFA1-179 (Homo sapiens, UniProt Q00059 43-221); assay: EMSA
T2 sequence: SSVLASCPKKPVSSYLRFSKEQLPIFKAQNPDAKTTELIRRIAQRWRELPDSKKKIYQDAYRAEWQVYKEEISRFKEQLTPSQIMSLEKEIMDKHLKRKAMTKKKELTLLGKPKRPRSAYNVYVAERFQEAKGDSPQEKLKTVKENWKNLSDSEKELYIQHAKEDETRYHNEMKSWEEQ

[3] = target: T3, h-mtTFA box B (mtTFA110-179) (Homo sapiens, UniProt Q00059 152-221); assay: EMSA
T3 sequence: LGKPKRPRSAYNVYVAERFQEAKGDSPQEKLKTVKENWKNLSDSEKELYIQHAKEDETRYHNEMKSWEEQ

[4] = target: T2, h-mtTFA1-179; assay: competition

B1: 30 bp LSP DNA, 32P-labeled (dsDNA)
DNA 1: GTGTTAGTTGGGGGGTGACTGTTAAAAGTG
DNA 2: CACTTTTAACAGTCACCCCCCAACTAACAC
Kd [1]: 5.4 ± 0.6 nM
Kd [2]: 12 ± 1.7 nM

B2: 30 bp LSP DNA, unlabeled (dsDNA)
DNA 1: GTGTTAGTTGGGGGGTGACTGTTAAAAGTG
DNA 2: CACTTTTAACAGTCACCCCCCAACTAACAC
binding result [3]: no binding

B3: 30 bp scrambled nonspecific DNA (NS DNA) (dsDNA)
DNA 1: ACTACTAACAGACCGCAACCTAAACACAAC
DNA 2: GTTGTGTTTAGGTTGCGGTCTGTTAGTAGT
binding result [4]: binds
